How the values were obtained:
[1] = test system: AncSZ; test: phosphorylation enrichment, bacterial display (enrichment ratio); higher = better substrate or ligand; peptides without Tyr show the background
[2] = target: EPHB1 (UniProt P54762); test: as above
[3] = target: EPHB2 (UniProt P29323); test: as above
[4] = target: FGFR1 (UniProt P11362); test: as above
[5] = target: FGFR3 (UniProt P22607); test: as above
[6] = test system: Fer (mouse); test: as above
[7] = target: Fes (UniProt P07332); test: as above
[8] = target: Fyn (UniProt P06241); test: as above
[9] = target: Hck (UniProt P08631); test: as above
[10] = target: Jak2 (UniProt O60674); test: as above
[11] = target: MERTK (UniProt Q12866); test: as above
[12] = test system: c-Abl (mouse); test: as above
[13] = test system: c-Src; test: as above
[14] = target: Grb2 SH2 (UniProt P62993); test: SH2 binding enrichment of the phosphorylated peptide, bacterial display (enrichment ratio); higher = better substrate or ligand; peptides without Tyr show the background
[15] = target: SHP2-C SH2; test: as above
[16] = target: c-Src SH2; test: as above
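Wherever SH2 binding enrichment of the phosphorylated peptide, bacterial display is given: peptide library displayed on the E. coli surface as eCPX fusions, selected cells deep-sequenced, score is each peptide's frequency after selection divided by its frequency in the input.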
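Wherever phosphorylation enrichment, bacterial display is given: 11-residue human phosphosite peptides and single-mutation variants displayed on the E. coli surface, counted by deep sequencing, each peptide's frequency after selection divided by its frequency in the unselected input library; frequency after pTyr selection over input frequency; kinase dosed for 20-30% of maximal phosphorylation in three min.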

Chain of FGFR3 (P22607 whole entry, looked up): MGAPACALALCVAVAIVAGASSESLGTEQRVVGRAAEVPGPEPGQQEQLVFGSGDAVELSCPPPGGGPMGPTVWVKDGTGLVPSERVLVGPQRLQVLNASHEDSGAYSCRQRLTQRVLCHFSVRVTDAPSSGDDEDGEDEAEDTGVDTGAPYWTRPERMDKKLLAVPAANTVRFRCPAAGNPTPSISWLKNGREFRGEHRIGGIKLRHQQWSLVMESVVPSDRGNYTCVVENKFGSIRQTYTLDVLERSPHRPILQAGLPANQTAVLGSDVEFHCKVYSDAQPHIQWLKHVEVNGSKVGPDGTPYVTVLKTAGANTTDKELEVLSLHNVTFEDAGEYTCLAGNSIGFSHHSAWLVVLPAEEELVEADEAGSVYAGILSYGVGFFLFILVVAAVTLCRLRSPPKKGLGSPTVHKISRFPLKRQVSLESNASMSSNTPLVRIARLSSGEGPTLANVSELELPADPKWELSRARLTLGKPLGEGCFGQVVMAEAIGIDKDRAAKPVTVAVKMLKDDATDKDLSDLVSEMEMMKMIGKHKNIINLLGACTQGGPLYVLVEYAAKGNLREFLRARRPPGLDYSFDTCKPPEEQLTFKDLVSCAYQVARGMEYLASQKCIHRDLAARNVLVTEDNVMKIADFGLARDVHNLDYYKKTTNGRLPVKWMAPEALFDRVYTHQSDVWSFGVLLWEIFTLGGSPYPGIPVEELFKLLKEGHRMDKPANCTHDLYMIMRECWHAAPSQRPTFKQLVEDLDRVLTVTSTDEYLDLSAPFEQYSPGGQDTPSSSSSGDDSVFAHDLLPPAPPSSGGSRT
Chain of EPHB1 (P54762 whole entry, looked up): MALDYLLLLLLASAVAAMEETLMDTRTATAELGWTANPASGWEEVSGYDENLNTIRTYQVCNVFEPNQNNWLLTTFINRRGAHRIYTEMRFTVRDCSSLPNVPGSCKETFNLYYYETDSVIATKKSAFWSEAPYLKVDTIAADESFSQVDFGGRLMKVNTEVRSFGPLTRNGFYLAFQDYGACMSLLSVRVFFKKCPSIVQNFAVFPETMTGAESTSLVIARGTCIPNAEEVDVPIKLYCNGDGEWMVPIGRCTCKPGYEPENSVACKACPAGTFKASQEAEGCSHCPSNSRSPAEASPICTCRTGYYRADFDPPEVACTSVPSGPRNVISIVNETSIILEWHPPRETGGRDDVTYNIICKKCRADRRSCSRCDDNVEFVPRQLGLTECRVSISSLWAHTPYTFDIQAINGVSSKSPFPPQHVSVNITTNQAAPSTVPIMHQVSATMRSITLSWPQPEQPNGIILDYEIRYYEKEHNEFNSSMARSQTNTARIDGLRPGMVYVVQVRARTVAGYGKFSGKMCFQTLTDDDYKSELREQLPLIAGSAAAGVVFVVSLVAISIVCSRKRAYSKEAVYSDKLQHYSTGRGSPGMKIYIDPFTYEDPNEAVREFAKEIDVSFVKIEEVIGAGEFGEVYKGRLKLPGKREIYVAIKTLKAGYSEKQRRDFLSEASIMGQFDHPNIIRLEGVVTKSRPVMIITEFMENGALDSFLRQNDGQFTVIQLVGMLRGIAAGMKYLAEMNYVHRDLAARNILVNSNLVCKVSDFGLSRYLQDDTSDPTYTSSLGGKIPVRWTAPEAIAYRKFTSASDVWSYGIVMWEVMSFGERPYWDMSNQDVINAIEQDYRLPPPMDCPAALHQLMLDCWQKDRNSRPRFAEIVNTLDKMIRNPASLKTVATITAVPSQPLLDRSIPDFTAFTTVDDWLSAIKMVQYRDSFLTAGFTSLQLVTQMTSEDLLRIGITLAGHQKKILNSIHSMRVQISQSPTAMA
Chain of Fes (P07332 whole entry, looked up): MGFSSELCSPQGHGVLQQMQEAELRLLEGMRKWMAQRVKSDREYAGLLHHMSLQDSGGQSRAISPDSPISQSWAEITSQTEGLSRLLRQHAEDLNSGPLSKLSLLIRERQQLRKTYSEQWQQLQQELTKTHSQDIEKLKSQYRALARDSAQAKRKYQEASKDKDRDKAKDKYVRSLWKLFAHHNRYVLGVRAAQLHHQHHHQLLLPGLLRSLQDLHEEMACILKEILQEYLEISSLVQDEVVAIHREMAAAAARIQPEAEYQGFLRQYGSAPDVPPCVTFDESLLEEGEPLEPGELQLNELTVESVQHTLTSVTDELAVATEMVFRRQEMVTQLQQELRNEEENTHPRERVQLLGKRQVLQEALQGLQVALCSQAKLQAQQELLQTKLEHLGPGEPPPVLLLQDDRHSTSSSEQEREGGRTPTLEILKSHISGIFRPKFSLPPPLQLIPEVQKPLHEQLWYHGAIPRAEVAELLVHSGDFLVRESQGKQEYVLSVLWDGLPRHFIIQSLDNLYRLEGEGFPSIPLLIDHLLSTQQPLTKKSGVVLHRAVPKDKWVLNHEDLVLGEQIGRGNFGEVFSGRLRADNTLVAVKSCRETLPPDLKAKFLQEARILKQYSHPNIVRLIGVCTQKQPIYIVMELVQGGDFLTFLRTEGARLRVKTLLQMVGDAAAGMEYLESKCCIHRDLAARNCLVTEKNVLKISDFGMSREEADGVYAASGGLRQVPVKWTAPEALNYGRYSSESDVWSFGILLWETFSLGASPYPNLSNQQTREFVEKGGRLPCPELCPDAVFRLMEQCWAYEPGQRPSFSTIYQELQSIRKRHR
Chain of Grb2 SH2 (P62993 whole entry, looked up): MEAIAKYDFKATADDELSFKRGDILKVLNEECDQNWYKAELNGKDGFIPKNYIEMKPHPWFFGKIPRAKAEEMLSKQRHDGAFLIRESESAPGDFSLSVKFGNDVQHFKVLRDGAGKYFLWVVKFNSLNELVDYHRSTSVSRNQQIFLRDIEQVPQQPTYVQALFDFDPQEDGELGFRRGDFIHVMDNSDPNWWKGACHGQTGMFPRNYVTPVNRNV
Chain of Jak2 (O60674 whole entry, looked up): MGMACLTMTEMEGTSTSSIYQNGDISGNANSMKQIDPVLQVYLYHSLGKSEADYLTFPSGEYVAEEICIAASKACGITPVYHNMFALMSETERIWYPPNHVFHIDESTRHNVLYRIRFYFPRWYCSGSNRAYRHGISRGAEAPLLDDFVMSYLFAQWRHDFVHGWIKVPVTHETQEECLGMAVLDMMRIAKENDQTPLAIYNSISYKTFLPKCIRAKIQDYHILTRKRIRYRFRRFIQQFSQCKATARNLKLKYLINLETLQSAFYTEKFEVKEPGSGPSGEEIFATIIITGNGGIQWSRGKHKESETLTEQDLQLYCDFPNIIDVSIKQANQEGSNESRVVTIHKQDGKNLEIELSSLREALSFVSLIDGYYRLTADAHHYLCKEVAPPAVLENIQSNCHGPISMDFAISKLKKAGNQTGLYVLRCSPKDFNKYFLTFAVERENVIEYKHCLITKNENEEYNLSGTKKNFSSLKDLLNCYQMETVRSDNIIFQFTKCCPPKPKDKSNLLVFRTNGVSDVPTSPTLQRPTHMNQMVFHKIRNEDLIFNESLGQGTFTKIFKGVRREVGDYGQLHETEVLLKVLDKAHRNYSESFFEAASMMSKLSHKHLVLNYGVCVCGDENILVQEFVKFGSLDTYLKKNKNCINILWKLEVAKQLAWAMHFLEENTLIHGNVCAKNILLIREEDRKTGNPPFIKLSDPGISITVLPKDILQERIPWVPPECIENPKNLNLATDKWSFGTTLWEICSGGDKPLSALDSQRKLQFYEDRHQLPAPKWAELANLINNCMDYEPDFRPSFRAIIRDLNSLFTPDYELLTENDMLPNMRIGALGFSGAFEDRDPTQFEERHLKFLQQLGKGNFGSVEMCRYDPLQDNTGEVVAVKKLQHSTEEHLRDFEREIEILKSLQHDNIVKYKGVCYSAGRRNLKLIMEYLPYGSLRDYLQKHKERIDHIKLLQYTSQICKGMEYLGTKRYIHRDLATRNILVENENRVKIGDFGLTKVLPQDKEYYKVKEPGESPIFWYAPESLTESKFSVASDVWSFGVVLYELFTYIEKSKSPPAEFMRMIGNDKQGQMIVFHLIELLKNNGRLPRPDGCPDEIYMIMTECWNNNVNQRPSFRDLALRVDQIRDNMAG
Chain of MERTK (Q12866 whole entry, looked up): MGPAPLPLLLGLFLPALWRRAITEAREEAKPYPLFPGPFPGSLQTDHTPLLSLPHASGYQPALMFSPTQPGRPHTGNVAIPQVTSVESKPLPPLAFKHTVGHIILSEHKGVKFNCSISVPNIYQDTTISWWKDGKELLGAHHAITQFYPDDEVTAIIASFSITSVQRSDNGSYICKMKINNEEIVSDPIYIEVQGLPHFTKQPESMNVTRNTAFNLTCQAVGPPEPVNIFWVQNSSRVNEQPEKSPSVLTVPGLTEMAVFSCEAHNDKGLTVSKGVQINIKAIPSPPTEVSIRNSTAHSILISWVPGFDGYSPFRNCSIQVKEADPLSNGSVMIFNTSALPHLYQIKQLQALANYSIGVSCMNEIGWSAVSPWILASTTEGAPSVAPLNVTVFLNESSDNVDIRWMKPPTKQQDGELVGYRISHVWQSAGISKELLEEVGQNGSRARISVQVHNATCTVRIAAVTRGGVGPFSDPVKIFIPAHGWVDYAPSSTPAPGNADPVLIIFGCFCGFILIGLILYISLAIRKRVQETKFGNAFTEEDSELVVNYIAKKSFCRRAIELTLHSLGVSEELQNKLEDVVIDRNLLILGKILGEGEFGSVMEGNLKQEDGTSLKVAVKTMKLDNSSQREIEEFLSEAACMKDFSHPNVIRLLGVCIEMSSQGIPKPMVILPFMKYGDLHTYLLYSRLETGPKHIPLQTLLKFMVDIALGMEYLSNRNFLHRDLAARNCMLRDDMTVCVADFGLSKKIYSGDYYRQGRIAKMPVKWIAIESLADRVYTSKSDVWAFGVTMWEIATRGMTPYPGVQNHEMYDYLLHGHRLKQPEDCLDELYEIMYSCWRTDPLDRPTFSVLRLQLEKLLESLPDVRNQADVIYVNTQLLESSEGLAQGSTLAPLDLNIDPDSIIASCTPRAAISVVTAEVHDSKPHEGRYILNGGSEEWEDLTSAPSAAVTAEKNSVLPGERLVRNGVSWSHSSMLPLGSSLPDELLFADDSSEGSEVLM

| Sequence | phosphorylation enrichment [1] | phosphorylation enrichment [2] | phosphorylation enrichment [3] | phosphorylation enrichment [4] | phosphorylation enrichment [5] | phosphorylation enrichment [6] | phosphorylation enrichment [7] | phosphorylation enrichment [8] | phosphorylation enrichment [9] | phosphorylation enrichment [10] | phosphorylation enrichment [11] | phosphorylation enrichment [12] | phosphorylation enrichment [13] | SH2 binding enrichment [14] | SH2 binding enrichment [15] | SH2 binding enrichment [16] |
| --- | --- | --- | --- | --- | --- | --- | --- | --- | --- | --- | --- | --- | --- | --- | --- | --- |
| QGCGIYKDYYR [PLA2G2D_Y82_S80G] | 1.69 | 1.04 | 0.904 | 1.1 | 1.19 | 0.67 | 1.59 | 5.71 | 3.57 | 1.21 | 0.773 | 1.18 | 6.8 | 0.956 | 0.931 | 0.497 |
| EFNLMYDGTKE [IRF6_Y97] | 0.993 | 0.447 | 0.462 | 0.498 | 0.603 | 0.479 | 1.14 | 0.536 | 0.595 | 1.03 | 0.446 | 0.705 | 0.597 | 0.883 | 1.21 | 0.489 |
| FEKNVYVDKNL [PTCHD3_Y688] | 0.615 | 0.36 | 0.406 | 0.419 | 0.461 | 0.437 | 0.894 | 0.405 | 0.505 | 0.732 | 0.411 | 0.616 | 0.446 | 0.962 | 0.543 | 0.542 |
| KQLFAYKMLMA [TMC2_Y209_YF] | 0.858 | 0.562 | 0.594 | 0.548 | 0.677 | 0.445 | 0.926 | 0.475 | 0.566 | 0.773 | 0.386 | 0.711 | 0.439 | 1.25 | 1.07 | 1.01 |
| NACGLYHTMNG [GATA5_Y216_K218T] | 0.959 | 0.934 | 0.849 | 2.47 | 1.79 | 0.643 | 0.95 | 0.865 | 2.21 | 0.956 | 3.18 | 0.746 | 3.06 | 0.849 | 0.589 | 4.06 |
| PAKPRYRARQR [KCNJ11_Y26_E23K] | 1.08 | 0.774 | 1.06 | 0.671 | 0.642 | 0.767 | 0.877 | 0.813 | 0.819 | 0.955 | 0.935 | 0.818 | 0.763 | 0.654 | 0.399 | 0.418 |
| LGSNGYKKLLK [SEPSECS_Y334] | 0.697 | 0.42 | 0.437 | 0.338 | 0.636 | 0.351 | 0.841 | 0.879 | 0.635 | 0.59 | 0.773 | 0.543 | 0.755 | 0.723 | 0.576 | 0.396 |
| PQGVRYIYTID [DCX_Y103] | 1.73 | 0.943 | 0.951 | 0.726 | 1.15 | 1 | 5.16 | 4.01 | 1.6 | 2.21 | 0.856 | 1.37 | 4.09 | 0.772 | 15.4 | 0.618 |
| RMDGKYACSYT [FLNB_Y704_T703K] | 0.899 | 0.437 | 0.471 | 0.528 | 0.518 | 0.635 | 1.02 | 0.418 | 0.541 | 0.722 | 0.484 | 0.79 | 0.664 | 0.997 | 0.863 | 0.878 |
| SIKDKYLTALY [KCNH2_Y611_V612L] | 0.727 | 0.456 | 0.452 | 0.417 | 0.546 | 0.44 | 0.707 | 0.56 | 0.651 | 0.624 | 0.439 | 0.487 | 0.623 | 0.968 | 0.634 | 0.565 |
| YETDYYQKGGK [INSR_Y1190_R1191Q] | 1.34 | 0.63 | 0.615 | 0.983 | 0.907 | 0.573 | 0.919 | 0.519 | 0.639 | 0.716 | 0.664 | 0.526 | 0.459 | 0.863 | 1.16 | 1.1 |
| KRLAVYQAGAR [APOE_Y180] | 0.495 | 0.316 | 0.399 | 0.403 | 0.365 | 0.333 | 0.504 | 0.405 | 0.335 | 0.464 | 0.346 | 0.398 | 0.378 | 1.1 | 1.05 | 0.879 |
| LSDGPYSSPFE [EPOR_Y485_N487S_YF] | 1.37 | 0.631 | 0.53 | 0.781 | 0.715 | 0.465 | 0.84 | 0.786 | 0.684 | 0.765 | 0.527 | 0.468 | 0.698 | 0.507 | 0.473 | 1.02 |
| PEVSGYCHFAD [TG_Y234_C237Y_YF] | 1.29 | 0.745 | 0.782 | 0.709 | 0.773 | 0.517 | 1.39 | 0.532 | 0.639 | 1.15 | 0.384 | 0.937 | 0.572 | 0.883 | 0.631 | 1.32 |
| PFIDSYEKDVA [PGM1_Y521_L516P_YF] | 1.07 | 0.574 | 0.708 | 0.592 | 0.636 | 0.35 | 1.04 | 0.656 | 0.606 | 0.594 | 0.378 | 0.51 | 0.375 | 0.682 | 0.612 | 0.595 |
| LLLLFCVVRYC [MPZ_Y177_Y177C] | 3.01 | 2.47 | 2.48 | 3.08 | 2.14 | 1.14 | 2.07 | 1.78 | 2.16 | 3.14 | 2.94 | 4.58 | 2.84 | 2.53 | 1.58 | 1.41 |
| VIERSYTSADG [DHCR7_Y382_C380R] | 0.571 | 0.388 | 0.478 | 0.414 | 0.466 | 0.454 | 0.692 | 0.496 | 0.392 | 0.578 | 0.395 | 0.565 | 0.419 | 0.852 | 0.564 | 1.39 |

| Sequence | phosphorylation enrichment [1] | phosphorylation enrichment [2] | phosphorylation enrichment [3] | phosphorylation enrichment [4] | phosphorylation enrichment [5] | phosphorylation enrichment [6] | phosphorylation enrichment [7] | phosphorylation enrichment [8] | phosphorylation enrichment [9] | phosphorylation enrichment [10] | phosphorylation enrichment [11] | phosphorylation enrichment [12] | phosphorylation enrichment [13] | SH2 binding enrichment [14] | SH2 binding enrichment [15] | SH2 binding enrichment [16] |
| --- | --- | --- | --- | --- | --- | --- | --- | --- | --- | --- | --- | --- | --- | --- | --- | --- |
| VDDQIYFFRKP [PBRM1_Y1289_E1287Q_YF] | 2.49 | 0.961 | 0.785 | 3.43 | 3.47 | 0.728 | 1.55 | 6.38 | 5.8 | 1.61 | 1.42 | 3.29 | 4.67 | 0.778 | 0.669 | 0.42 |
| GFQPDYGQPAG [SYP_Y278_YF] | 0.583 | 0.443 | 0.431 | 0.478 | 0.483 | 0.206 | 0.686 | 0.435 | 0.728 | 0.554 | 0.404 | 0.509 | 0.294 | 0.836 | 0.519 | 0.56 |
| VVFIKYLPEWT [PSEN1_Y240_L235V] | 1.01 | 0.595 | 0.532 | 0.424 | 0.773 | 0.538 | 1.23 | 0.335 | 0.44 | 1.22 | 0.343 | 0.81 | 0.414 | 1.64 | 1.64 | 1.04 |
| DAVAVYHGKIS [SH2D1A_Y7] | 0.593 | 0.395 | 0.442 | 0.388 | 0.492 | 0.379 | 0.744 | 0.442 | 0.533 | 0.603 | 0.369 | 0.51 | 0.348 | 0.717 | 0.82 | 0.406 |
| NSGFFYKTAEE [CCT6B_Y250] | 1.31 | 0.655 | 0.722 | 0.556 | 0.74 | 0.486 | 1.41 | 0.462 | 0.445 | 1.44 | 0.435 | 0.888 | 0.476 | 0.734 | 0.586 | 0.546 |
| VDDEIYYFRKP [PBRM1_Y1289] | 2.94 | 0.871 | 0.84 | 6.49 | 5.81 | 1.29 | 1.39 | 8.84 | 8.76 | 1.35 | 4.89 | 7.44 | 6.81 | 0.994 | 0.57 | 0.521 |
| LMVFEYMRHGN [NTRK1_Y591_D596N] | 0.998 | 0.797 | 0.692 | 0.55 | 0.707 | 0.466 | 1.44 | 0.664 | 0.597 | 1.54 | 0.457 | 0.912 | 0.539 | 1.65 | 1.89 | 1.19 |
| VKPENYRRPDI [VHL_Y175_L178P] | 0.566 | 0.335 | 0.468 | 0.388 | 0.526 | 0.344 | 0.699 | 0.333 | 0.364 | 0.525 | 0.371 | 0.63 | 0.436 | 0.846 | 0.647 | 0.427 |
| IHYPPYTDWNQ [ALDH3B2_Y365] | 0.889 | 0.527 | 0.676 | 1.14 | 0.881 | 2.21 | 0.933 | 0.512 | 0.655 | 0.736 | 0.429 | 0.938 | 0.573 | 0.883 | 0.71 | 1.25 |
| VFPIDYFFPPQ [AR_Y552_L548F_YF] | 4.04 | 1.19 | 1.53 | 12.6 | 10.7 | 0.643 | 1.04 | 0.508 | 0.618 | 2.76 | 0.518 | 1.03 | 0.906 | 1.4 | 1.32 | 0.646 |
| SSPVPYLSPET [TJP1_Y931] | 0.789 | 0.442 | 0.502 | 0.482 | 0.627 | 0.453 | 0.835 | 0.541 | 0.445 | 0.719 | 0.409 | 0.646 | 0.422 | 0.851 | 0.66 | 0.507 |
| RVVVPYEPPEV [TP53_Y220_S215R] | 1.01 | 0.523 | 0.505 | 0.631 | 0.657 | 0.409 | 0.99 | 0.554 | 0.454 | 0.892 | 0.468 | 0.613 | 0.36 | 0.836 | 0.925 | 1.03 |
| SHLEDYPFDAE [AKR1B10_Y310_N313D] | 0.986 | 0.516 | 0.554 | 0.467 | 0.714 | 0.469 | 1.14 | 0.485 | 0.448 | 1.3 | 0.369 | 0.672 | 0.462 | 0.746 | 0.842 | 0.471 |
| WEQELYSQLVF [WAS_Y102_YF] | 2.24 | 8.61 | 11.6 | 4.85 | 4.51 | 14.4 | 2.71 | 8.54 | 7.88 | 1.38 | 8.62 | 1.81 | 6.47 | 0.876 | 0.818 | 0.688 |
| VSNFNYFFHRE [KCNA1_Y413_YF] | 1.12 | 0.642 | 0.509 | 0.685 | 0.885 | 0.472 | 1.22 | 0.454 | 0.506 | 0.969 | 0.45 | 0.831 | 0.445 | 1.35 | 1.39 | 0.79 |
| TCFDKYTGSTY [FN1_Y101_N104S] | 0.843 | 0.442 | 0.556 | 0.556 | 0.534 | 0.418 | 0.737 | 0.469 | 0.652 | 0.747 | 0.399 | 0.579 | 0.5 | 0.997 | 0.691 | 0.51 |
| QNTGGYFDLFG [PTPN11_Y62_D61G_YF] | – | – | – | – | – | – | – | – | – | 1.26 | – | 0.27 | – | – | – | – |

Reference: the supplement of paper PMC10065799, “High-throughput profiling of sequence recognition by tyrosine kinases and SH2 domains using bacterial peptide display” (eLife, 2023)
